Laboratory results reported in patent publication US20250304658A1 (ICAHN SCHOOL OF MEDICINE AT MOUNT SINAI, published 2025).
Several values for one entry are separate records, joined by “and”; a condition that tells them apart may be missing. Identical values can stand only once. Like-named read-outs stand apart in the source and are kept apart here.

Assays:
Assay in all cases: cell-based or functional assay
[1] = biological target: BK virus VP1 protein, genotype IV (BK virus)
[2] = biological target: BK virus VP1 protein, genotype III (BK virus)
[3] = biological target: BK virus VP1 protein, genotype II (BK virus)
[4] = biological target: BK virus VP1 protein, genotype IV (BK virus); remark: listed apart in the source
[5] = biological target: BK virus VP1 protein, genotype III (BK virus); remark: listed apart in the source
[6] = biological target: BK virus VP1 protein, genotype II (BK virus); remark: listed apart in the source

B1: 7H8 (antibody, V domains shown)
VH: EVQLLESGGGLVQPGGSLRLSCAASGFAFHTYDMTWVRQAPGKGLEWVSGVVGSGINTYYADSVKGRFTISRDNSKSTLYLQMNSLRAEDTAVYYCAKDSSSWFSLHYWGQGTLVTVSS
VL: DIQMTQSPSTLSASVGDRVTITCRASQSISNWLAWYQQKPGKAPKLLIYKASSLESGVPSRFSGSGSGTDFTLTISSLQPDDFASYYCQQYRSYAYTFGQGTKLEIT
With B1 the “EC50, pseudovirus neutralization” value [1] was 94.3 pM, the “EC50, pseudovirus neutralization” value [2] was 33.4 pM and the “EC50, pseudovirus neutralization” value [3] was 50 pM.

B2: 7A4 (antibody, V domains shown)
VH: QVQLVESGGDLVKPGGSLRLSCVASGFTFSDYYMNWIRLPPGKGLEWISYIDSSAGAIYYADSVKGRFTVSRDDAKNSLFLHMNSLRADDTAVYYCVRERRDGHKIFDYWGPGTLVTVSS
VL: DIVMTQSPDSLAVSLGERATINCKSSQNILYSSNNKNYLAWYQQKAGQPPKLLIFWSSIRESGVPDRFSGSGSGTDFTLTISSLQAEDVAVYYCQQYYSSPYNFGRGTTLEIK
In the case of B2, the “EC50, pseudovirus neutralization” value [1] is reported as 25.1 pM, the “EC50, pseudovirus neutralization” value [2] is reported as 8.1 pM and the “EC50, pseudovirus neutralization” value [3] is reported as 13.2 pM.

B3: 2F7 (antibody, V domains shown)
VH: QVQLVESGGGLVKPGGSLRLSCVASGFTFSDYYMNWIRLPPGRGLQWISYIDSSAGAIYYADSVKGRFTVSRDDAKNSLYLQMNSLRADDTAVYYCARERRDGHKIFDWWGQGTLVTVSS
VL: DIVMTQSPDSLAVSLGERATINCKSSQNILYTSNNKNYLGWYQQKAGQPPKLLIYWSSTRNSGVPDRFSGSGSGTDFTLTISSLQAEDVAVYYCHQYYSSPYTFGQGTNLEIK
For B3, the “EC50, pseudovirus neutralization” value [1] was 72.4 pM, the “EC50, pseudovirus neutralization” value [2] was 2.2 pM and the “EC50, pseudovirus neutralization” value [3] was 1.1 pM.

B4: 8A11 (antibody, V domains shown)
VH: QVQLVESGGDLVKPGGSLRLSCVASGFTFSDYYMNWIRLPPGKGLEWISYIDSSAGATYYADSVKGRFTVSRDDAKNSLFLHMNSLRAEDTAVYYCARERRSGHKIFDCWGPGTLVTVSS
VL: DIVMTQSPDSLAVSLGERATINCKSSQNILYSSNNKNYLAWYQQKAGQPPKLLIFWSSTRESGVPDRFSGSGSGTDFTLTISSLQAEDVAVYYCQQYYSSPYNFGRGTTLEIK
For B4, the “EC50, pseudovirus neutralization” value [1] was 94.8 pM, the “EC50, pseudovirus neutralization” value [2] was 31.5 pM and the “EC50, pseudovirus neutralization” value [3] was 1.4 pM.

B5: 1E2 (antibody, V domains shown)
VH: QVQLVESGGDLVKPGGSLRLSCVASGFTFSDYYMNWIRLPPGKGLEWVSYIDSSAGAIYYADSVRGRFTVSRDDAKNSLFLHMNSLRADDTAVYYCARERRDGHKIFDCWGPGTLVTVSS
VL: DIVMTQSPDSLAVSLGERATINCKSSQNILYSSNNKNYLAWYQQKAGQPPKLLIFWSSTRESGVPDRFSGSGSGTDFTLTINSLQAEDVAVYYCQQYYSSPYNFGRGTTLEIK
With B5 the “EC50, pseudovirus neutralization” value [1] was 143 pM, the “EC50, pseudovirus neutralization” value [2] was 8.1 pM and the “EC50, pseudovirus neutralization” value [3] was 33.2 pM.

B6: 1H10 (antibody, V domains shown)
VH: QVHLVESGGDLVKPGGSLRLSCVASGFTFSDYYMNWIRMPPGKGLEWISYIDSSAGAIYYADSVKGRFTVSRDDAKNSLFLHMNNLRADDTAVYYCARERRDGHKIFDCWGPGTLVTVSS
VL: DIVMTQSPDSLAVSLGERATINCKSSQNILYSSNNKNYLAWYQQKAGQPPKLLIFWSSTRESGVPDRFSGSGSGTDFTLTISSLQAEDVAVYYCQQYYSSPYNFGRGTTLEIK
B6 was tested, and the “EC50, pseudovirus neutralization” value [1] was 107 pM, the “EC50, pseudovirus neutralization” value [2] was 39.7 pM and the “EC50, pseudovirus neutralization” value [3] was 2.8 pM.

B7: 2H1 (antibody, V domains shown)
VH: QVQLVESGGDLVKPGGSLRLSCVASGFTFSDYYMNWIRLPPGKGLEWISYIDSSAGAIYYADSVKGRFTVSRDDAKNSLFLHMNSLRADDTAVYYCARERRDGHKIFDCWGPGTLVTVSS
VL: DIVMTQSPDSLAVSLGERATINCKSSQNILYSSNNKNYLAWYQQKTGQPPKLLIFWSSTRESGVPDRFSGSGSGTDFTLTISSLQAEDVAVYYCQQYYSSPYNFGRGTTLEIK
With B7 the “EC50, pseudovirus neutralization” value [1] was 72.8 pM and 81.5 pM.

B8: 8D10 (antibody, V domains shown)
VH: QVHLVESGGDLVKPGGSLRLSCVASGFTFSDYYMNWIRLPPGKGLEWISYIDSSAGAIYYADSVKGRFTVSRDDAKNSMFLHMNSLRADDTAVYYCARERRDGHKIFDYWGPGTLVTVSS
VL: DIVMTQSPDSLAVSLGERATINCKSSQNILYSSNNKNYLAWYQQKAGQPPKLLIFWSSTRESGVPDRFSGSGSGTDFTLTISSLQAEDVAVYYCQQYYSSPYNFGRGTTLEIK
For B8, the “EC50, pseudovirus neutralization” value [1] was 89.4 pM, the “EC50, pseudovirus neutralization” value [2] was 29 pM and the “EC50, pseudovirus neutralization” value [3] was 49.2 pM.

B9: 9B4 (antibody, V domains shown)
VH: QVQLVESGGDLVKPGGSLRLSCVASGFTFSDYYMNWIRLPPGKGLEWISYIDSSAGAIYYADSVKGRFTVSRDDAKNSLFLHMNSLRADDTAVYYCARERREGHKIFDFWGPGTLVTVSS
VL: DIVMTQSPDSLALSLGERATINCKSSQNILYSSNNKNYLACYQQKAGQPPKLLIFWSSTRESGVPDRFSGSGSGTDFTLTISSLQAEDVAVYYCQQYYSSPYNFGRGTTLEIK
With B9 the “EC50, pseudovirus neutralization” value [1] was 11.8 pM, the “EC50, pseudovirus neutralization” value [2] was 11.8 pM and the “EC50, pseudovirus neutralization” value [3] was 15.2 pM.

B10: 4F7 (antibody, V domains shown)
VH: QVQLVESGGDLVKPGGSLRLSCVASGFTFSDYYMNWIRLPPGKGLEWISYIDSSAGAIYYADSVKGRFTVSRDDAKNSLFLHMNNLRADDTAVYYCARERRDGHKIFDCWGPGTLVTVSS
VL: DIVMTQSPDSLAVSLGERATINCKSSQNILYSSNNKNYLAWYQQKAGQPPKLLIFWSSTRESGVPDRFSGSGSGTDFTLTISSLQAEDVAVYYCQQYYSSPYNFGRGTTLEIK
In the case of B10, the “EC50, pseudovirus neutralization” value [1] is reported as 41.6 pM, the “EC50, pseudovirus neutralization” value [2] is reported as 14.3 pM and the “EC50, pseudovirus neutralization” value [3] is reported as 31.9 pM.

B11: 5A8 (antibody, V domains shown)
VH: QVQLVESGGDLVKPGGSLRLSCVASGFTFSDYYMNWIRLPPGRGLEWISYIDSSAGAIYYADSVKGRFTVSRDDAKKSLFLYMNSLRADDTAVYYCARERRDGHKIFDYWGPGTLVTVSS
VL: DIVMTQSPDSLAVSLGERATINCKSSQNILYSSNNKNYLAWYQQKAGQPPKLLIFWSSTRESGVPDRFSGSGSGTDFTLTISSLQAEDVAVYYCHQYYSSPYNFGRGTTLEIK
For B11, the “EC50, pseudovirus neutralization” value [1] was 77.4 pM, the “EC50, pseudovirus neutralization” value [2] was 3.9 pM and the “EC50, pseudovirus neutralization” value [3] was 0.9 pM.

B12: 14F5 (antibody, V domains shown)
VH: EVQLLESGGGLVQPGGSLRLSCAVSGFTFSSFAMSWVRQAPGKGLEWVSGISASGGTTNYADSVKGRFTISRDNSKNTLYLQMSSLRAEDTAEYYCAKDRFLEWVEGFDPWGQGILVTVSP
VL: DIQMTQSPSSLSASVGDRVTITCRASQSIGRFLIWYQQKPGKAPKLLLYATSSLQSGVPARFTGSGSGTDFTLTIGSLQPEDFATYYCQQSYITPLTFGGGTKVEIK
In the case of B12, the “EC50, pseudovirus neutralization” value [1] is reported as 67.1 pM, the “EC50, pseudovirus neutralization” value [2] is reported as 21.5 pM and the “EC50, pseudovirus neutralization” value [3] is reported as 13.1 pM.

B13: 15C10 (antibody, V domains shown)
VH: EVQLLESGGGLVQPGGSLRLSCAASGFTFSSFAMSWVRQAPGKGLEWVSGISASGGTTNYADSVKGRFTISRDNSKNTLYLQMSSLRAEDTAEYYCAKDRFLEWVEGFDPWGQGILVTVSP
VL: DIQMTQSPSSLSASVGDRVTITCRASQSIGRFLIWYQQKPGKAPKLLLYATSSLQSGVPARFTGSGSGTDFTLTIGSLQPEDFATYYCQQSYITPLTFGGGTKVEIK
In the case of B13, the “EC50, pseudovirus neutralization” value [1] is reported as 42.3 pM, the “EC50, pseudovirus neutralization” value [2] is reported as 21.1 pM and the “EC50, pseudovirus neutralization” value [3] is reported as 13.1 pM. For the same binder, the “EC50, pseudovirus neutralization” value [4] was 2.3 pM, the “EC50, pseudovirus neutralization” value [5] was 1.86 pM and the “EC50, pseudovirus neutralization” value [6] was 0.58 pM.

B14: 9G9 (antibody, V domains shown)
VH: EVQLLESGGGLVQPGGSLRLSCAASGFTFHNYAMSWVRQAPGKGLEWVSGISGSGGTAYYADSVKGRFTISRDNSKNTLYLQMNSLRADDTALYYCAKDRFLEWVEGFDSWGQGTLVTVSS
VL: DIQMTQSPSSLSASVGDRVTITCRASQSIGSFLIWYQQKPGKAPKLLIYAASSLQSGVPSRFSGSGSGTDFTLIISSLQPEDFATYYCQQSYNTPLTFGGGTKVEIK
For B14, the “EC50, pseudovirus neutralization” value [1] was 110 pM, the “EC50, pseudovirus neutralization” value [2] was 1700 pM and the “EC50, pseudovirus neutralization” value [3] was 3.2 pM. For the same binder, the “EC50, pseudovirus neutralization (mAb mixed with irrelevant isotype matched mAb M2)” value [4] was 196 pM, the “EC50, pseudovirus neutralization (mAb mixed with irrelevant isotype matched mAb M2)” value [5] was 1290 pM and the “EC50, pseudovirus neutralization (mAb mixed with irrelevant isotype matched mAb M2)” value [6] was 2.3 pM.

B15: 6H12 (antibody, V domains shown)
VH: EVQLVESGGGLVQPGGSLRLSCAASGFTFSSYEMNWVRQAPGKGLEWVSYISSGGSSIKYADSVRGRFAFSRDNAENSVHLQMNSLRAEDTAVYYCARVGGSYYYSYAMDVWGQGTAVTVSS
VL: DIQLTQSPSFLSASVGDRVTITCWASQDISSYLAWYQQKPGKAPKLLIYAASTLQSGVPSRFTGSGSGTEFTLTISSLQPEDFATYYCQQPHNSPFSFGPGTKVDVK
B15 was tested, and the “EC50, pseudovirus neutralization” value [1] was 2210 pM, the “EC50, pseudovirus neutralization” value [2] was 127 pM and the “EC50, pseudovirus neutralization” value [3] was 10.9 pM. For the same binder, the “EC50, pseudovirus neutralization (mAb mixed with irrelevant isotype matched mAb M2)” value [4] was 944 pM, the “EC50, pseudovirus neutralization (mAb mixed with irrelevant isotype matched mAb M2)” value [5] was 172 pM and the “EC50, pseudovirus neutralization (mAb mixed with irrelevant isotype matched mAb M2)” value [6] was 2.4 pM.

B16: 11D12 (antibody, V domains shown)
VH: EVQLVESGGGLVQPGGSLRLSCAASGFTFSSYEMNWVRQAPGKGLEWVSYISSGGSSIKYADSVRGRFTFSRDNAENSVFLQMNSLRGEDTAVYYCARVGGSYYYSYAMDVWGQGTAVTVSS
VL: DIQLTQSPSFLSASVGDRVTITCWASQDISSYLAWYQQKPGKAPKLLIYAASTLQSGVPSRFSGSGSGTEFTLTISSLQPEDFATYYCQQPNNYPFSFGPGTKVDVK
In the case of B16, the “EC50, pseudovirus neutralization” value [1] is reported as greater than 6670 pM, the “EC50, pseudovirus neutralization” value [2] is reported as 6380 pM and the “EC50, pseudovirus neutralization” value [3] is reported as 9.5 pM.
